# According to patent US20260166131:
# B1: human plasminogen purified from human donor plasma (protein)
# chain: KVYLSECKTGNGKNYRGTMSKTKNGITCQKWSSTSPHRPRFSPATHPSEGLEENYCRNPDNDPQGPWCYTTDPEKRYDYCDILECEEECMHCSGENYDGKISKTMSGLECQAWDSQSPHAHGYIPSKFPNKNLKKNYCRNPDRELRPWCFTTDPNKRWELCDIPRCTTPPPSSGPTYQCLKGTGENYRGNVAVTVSGHTCQHWSAQTPHTHNRTPENFPCKNLDENYCRNPDGKRAPWCHTTNSQVRWEYCKIPSCDSSPVSTEQLAPTAPPELTPVVQDCYHGDGQSYRGTSSTTTTGKKCQSWSSMTPHRHQKTPENYPNAGLTMNYCRNPDADKGPWCFTTDPSVRWEYCNLKKCSGTEASVVAPPPVVLLPDVETPSEEDCMFGNGKGYRGKRATTVTGTPCQDWAAQEPHRHSIFTPETNPRAGLEKNYCRNPDGDVGGPWCYTTNPRKLYDYCDVPQCAAPSFDCGKPQVEPKKCPGRVVGGCVAHPHSWPWQVSLRTRFGMHFCGGTLISPEWVLTAAHCLEKSPRPSSYKVILGAHQEVNLEPHVQEIEVSRLFLEPTRKDIALLKLSSPAVITDKVIPACLPSPNYVVADRTECFITGWGETQGTFGAGLLKEAQLPVIENKVCNRYEFLNGRVQSTELCAGHLAGGTDSCQGDSGGPLVCFEKDKYILQGVTSWGLGCARPNKPGVYVRVSRFVTWIEGVMRNN
# Molecular target: custom-expressed human TDP-43 (Nanjing GenScript Biotechnology Co., Ltd., C134WHE160-2/P5HF001), Q13148
# Sequence (Q13148 whole entry): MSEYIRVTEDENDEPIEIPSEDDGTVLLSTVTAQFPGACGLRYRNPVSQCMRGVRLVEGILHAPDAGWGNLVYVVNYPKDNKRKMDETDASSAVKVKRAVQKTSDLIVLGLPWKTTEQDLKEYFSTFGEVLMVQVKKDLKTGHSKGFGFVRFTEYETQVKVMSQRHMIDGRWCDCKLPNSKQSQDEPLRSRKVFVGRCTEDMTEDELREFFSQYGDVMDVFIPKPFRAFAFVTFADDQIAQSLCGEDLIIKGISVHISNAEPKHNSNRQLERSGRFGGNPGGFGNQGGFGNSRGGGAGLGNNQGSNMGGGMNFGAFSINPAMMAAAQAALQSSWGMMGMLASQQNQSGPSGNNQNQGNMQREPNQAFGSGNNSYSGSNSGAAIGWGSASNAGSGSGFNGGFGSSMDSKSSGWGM
protein,measurement,value
B1,Western blot and band density of TDP-43 after 3 h at 37 C with plasminogen in normal mouse brain homogenate,"the amounts of TDP-43 monomer, HMW and LMW in the plasminogen group are significantly lower than those in the vehicle control group"
